Experimental findings from publication PMC5043019, “Unique and Universal Features of Epsilonproteobacterial Origins of Chromosome Replication and DnaA-DnaA Box Interactions” (Frontiers in Microbiology, 2016) are described below.

The data set deals with the molecule itself. Description: electron microscopy; purified DnaA (3 mM ATP) incubated with supercoiled plasmids carrying oriC1-dnaA-oriC2 (pAbori1ori2, pSdori1ori2, pWsoriori2); complexes stabilised by glutaraldehyde cross-linking, linearised with ScaI; looped DNA with one protein complex joining oriC1 and oriC2; DnaA molecules are DNA-bound.

B1: Arcobacter butzleri DnaA protein (natural protein, A. butzleri RM4018, UniProt A8EQT0 1-438, looked up)
chain: MTTKEFLTIIQKEANQIDYERYLKQLVYKKVSSDNKIAIFEVNNKYIASWIKSKFTNLIQHCFEIYDGSKPTIEIKLSNEKKSKKEILKEQTQNESTESTILNPSYTFDSFVVGPSNQMAYNASLAVANKPGIQYNPLFIYGGTGLGKTHLLQAVGNHAIEKGNTVIYVTIEQFMNDFTFSIKNKNMEHFRNKYRKCDVLLIDDIQFLSGKEQTQEEFFHTFNELHNAKKQIVMTSDRLPSQIAGLVDRLKSRFEWGLTADVQIPGLETKIAIIEKKSELNGICLSREIINFIATNLDNSIREIEGVLIRINASASLLNQEITLPMVQGLLKEQIKETKENVKLPDIINIVANQLNIKPSDIKSKKRTATVANARRIVIYLVRELTHNSMPDIAKFLGMKDHSAISHNIKKANELIEKDENFKLIIENLKNKIINSRE
notes: chromosomal replication initiator protein DnaA of Arcobacter butzleri RM4018, cloned from genomic DNA; Supplemented with 3 mM ATP for electron microscopy; also called A. butzleri DnaA; source: purified as described in (Zawilak-Pawlik et al., 2006) with minor modifications (Supplementary Materials)
Regarding B1, the binding result was “binds”.

B2: Wolinella succinogenes DnaA protein (natural protein, W. succinogenes DSM 1740, UniProt Q7MSY2 1-437, looked up)
chain: MLGDTTLKQLKDEISTLEYERYIKQLRYDEEASRTDLAVYIAPNQFIANWVKTKYGERLAHLFELSTGIRPKIEIRLGSLKKDVKSSSPKAGVSKGQKSTILNPSFTFDSFVVGNSNRFAYEVSQNVAKKQGIAYNPLLIYGGTGLGKTHLLNSIGNYNVAKGKSVIYVTSEQFLNDYLYHIRNNTMDRFRDKYRACDYLLIDDVQFFGGKPQIQEEFFHTFNELHNKNKQIVLTSDKTPKQIAGLEERLKSRFEWGMVSDIQPPELETKINIIKKKCEFDGIYLSNEIISYIATNMDNNIREIEGIIIKLNAYANLMNQEITLQFAKNVLKEQIKEERENITLENIIEVVSKELNVKPAEIKSKGRSKNIANARRIVIFLARTLTPNSMPSLAQFFGMKDHSSVSKAMKTVKTEIEEDANFKMVIEELKNKIKSRN
notes: chromosomal replication initiator protein DnaA of Wolinella succinogenes DSM 1740, cloned from genomic DNA; Supplemented with 3 mM ATP for electron microscopy; also called W. succinogenes DnaA; source: purified as described in (Zawilak-Pawlik et al., 2006) with minor modifications (Supplementary Materials)
Take B2: the binding result is “binds”.
